The test system of this data set is PurR (Escherichia coli K12?). Kind of data set: MST. As to conditions: panel assigned by order of figure text (h before i); EMSA: binding buffer 250 mM Tris pH 6.8, 150 mM NaCl, 5 mM EDTA, 10 mM DTT, 50% glycerol; 8% PAGE in 20 mM Tris-borate, 1 mM EDTA pH 8.0, 4 C, 80 V, EB stain …. A general note: A gel shift assay detects complexes by their altered migration in electrophoresis.

With glyA promoter (212 bp), the dissociation constant Kd came to 239 µM.

On to kbl promoter (208 bp), for which the Kd was 7.11 µM.

Broadly, the Kd is the free concentration of one partner at which half of the binding sites on the other are occupied at equilibrium, for simple one-to-one binding.

The values are drawn from article PMC6658569.
